B1: SEQ ID NO 36 (designed binder)
chain: MGSWYEFYNRLYAIEIRLYALGGSEAELAAFEKEIAAFESELQAYKGKGNPEVERLRVRAAKIRVILQAYRHN
B2: SEQ ID NO 35 (designed binder)
chain: MGSWSEFYNRLDAIESRLLALGGSEAELALFEIQIARFEKVLQAYKGKGNPEVEALRGEARAIFAELYAYRHN
B3: SEQ ID NO 37 (designed binder)
chain: MGSWLWFKIFLAEIKYFLEALGGSEAELAAFDFEIHAFHVELFAYKGKGNPEVEVLREVAAEIRWDLQAYRHN

The target of this test is KIR-Fc. Kind of test: phage ELISA, target-Fc against non-specific control. For orientation: In an ELISA, binding on a coated surface is turned into a signal by an enzyme label.
With B1, the ELISA ratio (target to background) worked out at 4.24.
Then B2, with 8.4; and B3, with 4.17.
